Publication PMC11331971 (Nature, 2023)

B1: TMPRSS2 (transmembrane-serine protease 2), wild type, on transfected 293T cells (receptor)
chain: MALNSGSPPAIGPYYENHGYQPENPYPAQPTVVPTVYEVHPAQYYPSPVPQYAPRVLTQASNPVVCTQPKSPSGTVCTSKTKKALCITLTLGTFLVGAALAAGLLWKFMGSKCSNSGIECDSSGTCINPSNWCDGVSHCPGGEDENRCVRLYGPNFILQVYSSQRKSWHPVCQDDWNENYGRAACRDMGYKNNFYSSQGIVDDSGSTSFMKLNTSAGNVDIYKKLYHSDACSSKAVVSLRCIACGVNLNSSRQSRIVGGESALPGAWPWQVSLHVQNVHVCGGSIITPEWIVTAAHCVEKPLNNPWHWTAFAGILRQSFMFYGAGYQVEKVISHPNYDSKTKNNDIALMKLQKPLTFNDLVKPVCLPNPGMMLQPEQLCWISGWGATEEKGKTSEVLNAAKVLLIETQRCNSRYVYDNLITPAMICAGFLQGNVDSCQGDSGGPLVTSKNNIWWLIGDTSWGSGCAKAYRPGVYGNVMVFTDWIYRQMRADG
B2: anti-TMPRSS2 nanobody VHH-A01 (VHH)
VHH: QVQLVESGGGLVQPGGSLRLSCVVSGFSLDYYAIGWFRQAPGKEREGVSCIGSSGDKTNYADSVKGRFTISRDNAKNTVYLQMNSLKPEDTAVYYCAAESALYSDCTEEQNPMLYDYWGQGTQVTVSS
B3: anti-TMPRSS2 nanobody VHH-F05 (VHH)
VHH: EVQLVESGGGLVQPGGSLRLSCAASGFTLDYYAIGWFRQAPGKEREGVSCISSSGDSIKYVDSVKGRFTISRDNAKNTVYLQMNSLKPEDTAVYQCAADALGSGCLTGNYDYWGQGTRVTVSS
B4: anti-TMPRSS2 nanobody VHH-A07 (VHH)
VHH: QVQLVESGGGLVQPGGSLRLSCTSSGSPLEHYDIIWFRQAPGREREGVSSITTSGGHTNYADSVKDRFTISRDNAKNVVYLQMNSLKPEDTAVYYCAGRVGGRRNWIVPLDGYDNAYWGQGTQVTVSS
B5: anti-TMPRSS2 nanobody VHH-C11 (VHH)
VHH: QVQLVESGGGLVQPGGSLRLSCAASGFTLDYYDIYWFRQAPGKEREGVSSITTSGGRTNYADSVKGRFTISRDNAKNTVYLQMNSLKPEDTAVYYCAAKVGGRRNWIAPLNGYENALWGKGTLVTVSS
B6: anti-TMPRSS2 nanobody VHH-D01 (VHH)
VHH: EVQLVESGGGLVQPGGPLRLSCASSGSTLEHYDIGWFRQVPGGLREGVSSITASGGRTNYADSVKGRFTISRDNGKNAVYLQMNSLKPEDTAVYYCAGKIGGRRNWVAPLDGFENAYWGQGTQVTVSS
B7: HKU1B receptor binding domain (residues 323-607) (domain or fragment)
chain: NLPDCDIDNWLNNVSVPSPLNWERRIFSNCNFNLSTLLRLVHVDSFSCNNLDKSKIFGSCFNSITVDKFAIPNRRRDDLQLGSSGFLQSSNYKIDISSSSCQLYYSLPLVNVTINNFNPSSWNRRYGFGSFNLSSYDVVYSDHCFSVNSDFCPCADPSVVNSCAKSKPPSAICPAGTKYRHCDLDTTLYVKNWCRCSCLPDPISTYSPNTCPQKKVVVGIGEHCPGLGINEEKCGTQLNHSSCFCSPDAFLGWSFDSCISNNRCNIFSNFIFNGINSGTTCSNDL
modifications: biotinylated with the BirA biotin-protein ligase kit for the BLI experiment with nanobodies only
B8: HKU1A receptor binding domain (residues 323-609) (domain or fragment)
chain: DLPDCDIDKWLNNFNVPSPLNWERKIFSNCNFNLSTLLRLVHTDSFSCNNFDESKIYGSCFKSIVLDKFAIPNSRRSDLQLGSSGFLQSSNYKIDTTSSSCQLYYSLPAINVTINNYNPSSWNRRYGFNNFNLSSHSVVYSRYCFSVNNTFCPCAKPSFASSCKSHKPPSASCPIGTNYRSCESTTVLDHTDWCRCSCLPDPITAYDPRSCSQKKSLVGVGEHCAGFGVDEEKCGVLDGSYNVSCLCSTDAFLGWSYDTCVSNNRCNIFSNFILNGINSGTTCSNDL
B9: HKU1B receptor binding domain with the R517A mutation (domain or fragment)
chain: NLPDCDIDNWLNNVSVPSPLNWERRIFSNCNFNLSTLLRLVHVDSFSCNNLDKSKIFGSCFNSITVDKFAIPNRRRDDLQLGSSGFLQSSNYKIDISSSSCQLYYSLPLVNVTINNFNPSSWNRRYGFGSFNLSSYDVVYSDHCFSVNSDFCPCADPSVVNSCAKSKPPSAICPAGTKYRHCDLDTTLYVKNWCACSCLPDPISTYSPNTCPQKKVVVGIGEHCPGLGINEEKCGTQLNHSSCFCSPDAFLGWSFDSCISNNRCNIFSNFIFNGINSGTTCSNDL

Target: dimeric anti-TMPRSS2 VHH-A01-Fc (alpaca (Lama pacos))
Test: flow cytometry on cells

Q: Does B1 bind?
A: binds

Target: S441A TMPRSS2 ectodomain, soluble (human, UniProt O15393, S441A)
Test: BLI

Sequence of S441A TMPRSS2 ectodomain, soluble (human, UniProt O15393, S441A) (O15393 106-492 S441A): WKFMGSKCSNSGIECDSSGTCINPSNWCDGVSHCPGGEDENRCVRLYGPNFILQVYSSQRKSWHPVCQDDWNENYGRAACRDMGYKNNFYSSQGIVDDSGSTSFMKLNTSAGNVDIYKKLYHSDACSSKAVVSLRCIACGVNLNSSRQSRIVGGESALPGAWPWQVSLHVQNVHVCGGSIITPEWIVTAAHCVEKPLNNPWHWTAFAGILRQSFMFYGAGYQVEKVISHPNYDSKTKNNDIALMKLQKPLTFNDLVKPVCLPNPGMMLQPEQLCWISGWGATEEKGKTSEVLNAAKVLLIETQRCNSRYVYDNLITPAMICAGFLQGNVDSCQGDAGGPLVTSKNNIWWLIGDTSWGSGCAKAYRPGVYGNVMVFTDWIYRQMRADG

Q: What does the source list for B2?
A: Kd: 0.78 nM; koff: 5.1e-05 s⁻¹

Q: Which results are given for B3?
A: Kd: 2.6 nM; koff: 0.00019 s⁻¹

Q: With B4 as the binder, how does the Kd read?
A: 13.3 nM

Q: And the koff?
A: 0.0011 s⁻¹

Q: How did the Kd turn out when B5 was run?
A: 32.5 nM

Q: What about the koff of the same binder?
A: 0.00023 s⁻¹

Q: Which results are given for B6?
A: Kd: 6 nM; koff: 0.00048 s⁻¹

Target: T1, S441A TMPRSS2 ectodomain, soluble (human, UniProt O15393 106-492, S441A)
Test: BLI

Q: With B7 as the binder, how does the Kd read?
A: 131 nM

Target: T1, S441A TMPRSS2 ectodomain, soluble
Test: BLI
Remark: another data set of the same source

Q: With B8 as the binder, how does the Kd read?
A: 334 ± 66.2 nM

Q: How did the Kd turn out when B7 was run?
A: 137 ± 20.8 nM

Q: For B9, which Kd is on record?
A: 376 ± 96.4 nM
